# Test system: Escherichia coli TOP10
# Test: shrunken log2 fold change of peptide-encoding DNA abundance (4.5 h post-induction vs induction); higher = less antimicrobial activity (less host growth inhibition)
# Settings: time post-induction: 4.5 h; library: site-saturation at positions 5, 18, 19, 20
# 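Further: peptides expressed intracellularly from a pBAD plasmid library in pooled LB shake-flask culture, induced with 0.3% L-arabinose, DNA abundance read by NGS, three biological replicates, DESeq2 with apeglm shrinkage.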
row,Sequence,shrunken log2 fold change
1,RRIRWRPPRLPRPRPRPFASPRP,0.177
2,RRIRGRPPRLPRPRPRPETWPRP,1.28
3,RRIRLRPPRLPRPRPRPEVTPRP,-0.046
4,RRIRVRPPRLPRPRPRPYDIPRP,-0.279
5,RRIRHRPPRLPRPRPRPKKVPRP,0.00707
6,RRIRMRPPRLPRPRPRPACLPRP,0.236
7,RRIRVRPPRLPRPRPRPHHQPRP,-0.427
8,RRIRPRPPRLPRPRPRPAFCPRP,0.104
9,RRIRNRPPRLPRPRPRPCEKPRP,-0.0478
10,RRIRRRPPRLPRPRPRPWFGPRP,-0.161
11,RRIRTRPPRLPRPRPRPLVLPRP,-0.162
12,RRIRARPPRLPRPRPRPIQNPRP,0.376
13,RRIRARPPRLPRPRPRPGGFPRP,0.518
14,RRIRIRPPRLPRPRPRPCHLPRP,-0.281
15,RRIRERPPRLPRPRPRPNACPRP,-0.00102
16,RRIRVRPPRLPRPRPRPNHKPRP,-0.292
17,RRIRWRPPRLPRPRPRPPCPPRP,0.138
18,RRIRIRPPRLPRPRPRPSDYPRP,-0.385
19,RRIRMRPPRLPRPRPRPEMKPRP,2.5
20,RRIRERPPRLPRPRPRPSGMPRP,-0.46
21,RRIRTRPPRLPRPRPRPAPQPRP,0.0544
22,RRIRTRPPRLPRPRPRPLVVPRP,0.193

row,Sequence,shrunken log2 fold change
1,RRIRPRPPRLPRPRPRPQYMPRP,-0.506
2,RRIRERPPRLPRPRPRPVCIPRP,-0.541
3,RRIRLRPPRLPRPRPRPMVYPRP,-0.0262
4,RRIRSRPPRLPRPRPRPSQMPRP,-0.161
5,RRIRCRPPRLPRPRPRPRDHPRP,0.197
6,RRIRLRPPRLPRPRPRPKPHPRP,0.207
7,RRIRIRPPRLPRPRPRPRGFPRP,0.199
8,RRIRFRPPRLPRPRPRPKIFPRP,-0.197
9,RRIRWRPPRLPRPRPRPPGSPRP,0.333
10,RRIRSRPPRLPRPRPRPRAKPRP,0.244
11,RRIRSRPPRLPRPRPRPCEGPRP,-0.00992
12,RRIRDRPPRLPRPRPRPITPPRP,-0.117
13,RRIRDRPPRLPRPRPRPTFNPRP,-0.0925
14,RRIRIRPPRLPRPRPRPCVKPRP,-0.828
15,RRIRVRPPRLPRPRPRPFGPPRP,-0.543
16,RRIRRRPPRLPRPRPRPHCFPRP,0.118
17,RRIRTRPPRLPRPRPRPPPSPRP,1.16
18,RRIRWRPPRLPRPRPRPTGWPRP,0.594
19,RRIRCRPPRLPRPRPRPWIFPRP,-0.159
20,RRIRRRPPRLPRPRPRPWIWPRP,-0.282
21,RRIRWRPPRLPRPRPRPDMLPRP,0.142
22,RRIRSRPPRLPRPRPRPMHHPRP,-0.0364

row,Sequence,shrunken log2 fold change
1,RRIRDRPPRLPRPRPRPTDMPRP,0.284
2,RRIRMRPPRLPRPRPRPSDDPRP,1.89
3,RRIRNRPPRLPRPRPRPDLVPRP,-0.15
4,RRIRNRPPRLPRPRPRPMCRPRP,-0.0579
5,RRIRERPPRLPRPRPRPGMWPRP,0.178
6,RRIRERPPRLPRPRPRPTSTPRP,-0.319
7,RRIRNRPPRLPRPRPRPEQWPRP,-0.0114
8,RRIRDRPPRLPRPRPRPMMPPRP,-0.00348
9,RRIRSRPPRLPRPRPRPCCIPRP,-0.197
10,RRIRIRPPRLPRPRPRPLTSPRP,-0.188
11,RRIRHRPPRLPRPRPRPPAMPRP,0.0064
12,RRIRWRPPRLPRPRPRPEFYPRP,-0.129
13,RRIRRRPPRLPRPRPRPCIWPRP,0.0382
14,RRIRVRPPRLPRPRPRPYSEPRP,-0.217
15,RRIRCRPPRLPRPRPRPPWVPRP,0.204
16,RRIRQRPPRLPRPRPRPESDPRP,0.319
17,RRIRWRPPRLPRPRPRPPKRPRP,0.388
18,RRIRYRPPRLPRPRPRPDISPRP,-0.415
19,RRIRTRPPRLPRPRPRPTTDPRP,-0.0867
20,RRIRYRPPRLPRPRPRPKCNPRP,-0.533
21,RRIRWRPPRLPRPRPRPHRPPRP,-0.135
22,RRIRARPPRLPRPRPRPPMHPRP,0.51

row,Sequence,shrunken log2 fold change
1,RRIRKRPPRLPRPRPRPQDHPRP,0.103
2,RRIRFRPPRLPRPRPRPWGAPRP,0.0596
3,RRIRSRPPRLPRPRPRPLQHPRP,-0.00742
4,RRIRPRPPRLPRPRPRPALSPRP,0.139
5,RRIRRRPPRLPRPRPRPEDGPRP,0.445
6,RRIRRRPPRLPRPRPRPSQNPRP,0.0754
7,RRIRIRPPRLPRPRPRPYHQPRP,0.0196
8,RRIRFRPPRLPRPRPRPVGQPRP,-0.0211
9,RRIRHRPPRLPRPRPRPELAPRP,-0.0268
10,RRIRARPPRLPRPRPRPQWSPRP,0.245
11,RRIRSRPPRLPRPRPRPILTPRP,-0.125
12,RRIRMRPPRLPRPRPRPAIQPRP,-0.00069
13,RRIRKRPPRLPRPRPRPDHLPRP,-0.0896
14,RRIRCRPPRLPRPRPRPMYGPRP,-0.675
15,RRIRQRPPRLPRPRPRPIKLPRP,-0.0569
16,RRIRHRPPRLPRPRPRPCRTPRP,0.00884
17,RRIRGRPPRLPRPRPRPARIPRP,0.208
18,RRIRGRPPRLPRPRPRPRSGPRP,0.83
19,RRIRARPPRLPRPRPRPMIRPRP,-0.388
20,RRIRQRPPRLPRPRPRPDCQPRP,-0.0643
21,RRIRLRPPRLPRPRPRPIPQPRP,-0.0537
22,RRIRFRPPRLPRPRPRPVVEPRP,0.258

row,Sequence,shrunken log2 fold change
1,RRIRYRPPRLPRPRPRPKMPPRP,-0.206
2,RRIRYRPPRLPRPRPRPQPEPRP,0.239
3,RRIRLRPPRLPRPRPRPEFEPRP,0.0191
4,RRIRTRPPRLPRPRPRPHSYPRP,-1.23
5,RRIRHRPPRLPRPRPRPNQGPRP,-0.479
6,RRIRPRPPRLPRPRPRPMGWPRP,0.217
7,RRIRARPPRLPRPRPRPYMKPRP,-0.366
8,RRIRNRPPRLPRPRPRPLCVPRP,-0.197
9,RRIRWRPPRLPRPRPRPLDHPRP,0.165
10,RRIRWRPPRLPRPRPRPFPPPRP,-0.0255
11,RRIRSRPPRLPRPRPRPGLEPRP,0.00456
12,RRIRQRPPRLPRPRPRPVQHPRP,-0.0755
13,RRIRERPPRLPRPRPRPENVPRP,-0.0141
14,RRIRQRPPRLPRPRPRPNRVPRP,-0.107
15,RRIRQRPPRLPRPRPRPQHMPRP,0.0284
16,RRIRERPPRLPRPRPRPDNEPRP,-0.0338
17,RRIRVRPPRLPRPRPRPHRAPRP,0.101
18,RRIRYRPPRLPRPRPRPAQFPRP,0.0198
19,RRIRPRPPRLPRPRPRPDAMPRP,0.319
20,RRIRQRPPRLPRPRPRPFELPRP,-0.113
21,RRIRQRPPRLPRPRPRPHFVPRP,-0.208
